In patent US9327008B2, “Cell-permeant peptide-based inhibitor of kinases” (Purdue Research Foundation, priority 2008, dated 2016):

Columns and labels:
Format in all cases: biochemical
Aurora-A = target: T1, Aurora-A (Homo sapiens, UniProt O14965); test: Millipore radiometric kinase activity assay, Aurora-A (h)
T1 construct: purchased Millipore (assay service)
T1 sequence (O14965 1-403): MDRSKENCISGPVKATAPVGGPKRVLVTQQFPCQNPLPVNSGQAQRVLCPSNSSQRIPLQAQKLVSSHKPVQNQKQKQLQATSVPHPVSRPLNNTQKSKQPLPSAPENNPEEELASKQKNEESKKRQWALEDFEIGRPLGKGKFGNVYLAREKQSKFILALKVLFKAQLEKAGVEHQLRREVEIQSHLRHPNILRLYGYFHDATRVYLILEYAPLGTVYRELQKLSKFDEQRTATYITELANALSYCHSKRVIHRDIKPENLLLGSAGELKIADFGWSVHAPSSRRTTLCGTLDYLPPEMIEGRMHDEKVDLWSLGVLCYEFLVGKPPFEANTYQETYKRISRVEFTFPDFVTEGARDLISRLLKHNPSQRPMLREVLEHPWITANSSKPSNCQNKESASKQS
Procedure: (§1) A commercial radiometric assay service (Millipore, Billerica, Mass.) was used to test the specificity and potency of peptides containing a coupled transduction domain and therapeutic domain, hereinafter “complete peptides”). In these assays, if the kinase is not inhibited by an inhibitor peptide, a positively charged substrate is phosphorylated with a radiolabeled phosphate group from an ATP.
(§2) In a final reaction volume of 25 μL, Aurora-A (h) (5-10 mU) is incubated with 8 mM MOPS pH 7.0, 0.2 mM EDTA, 200 μM LRRASLG [SEQ ID NO: 50] (Kemptide), 10 mM MgAcetate and [γ-^33P-ATP] (specific activity approx. 500 cpm/pmol, concentration as required). The reaction is initiated by the addition of the MgATP mix. After incubation for 40 minutes at room temperature, the reaction is stopped by the addition of 5 μL of a 3% phosphoric acid solution. 10 μL of the reaction is then spotted onto a P30 filtermat and washed three times for 5 minutes in 50 mM phosphoric acid and once in methanol prior to drying and scintillation counting.
(§3) IC50 values for inhibitor peptides were determined using Millipore's IC50Profiler Express service. The IC50 value was estimated from a 10-point curve of one-half log dilutions. For peptides tested for specificity, the concentration of the peptides that inhibited approximately 95% of MK2 activity was chosen to profile against a battery of kinases related to MK2, cell viability, or human disease from MilliporeKinaseProfiler service. In both assays, compounds were supplied in dimethylsulfoxide (DMSO). Every kinase activity measurement was conducted in duplicate.
(§4) Therapeutic inhibitor peptides were assayed for activity against human kinases related to MK2, cell viability, or human disease. The assays were performed using concentrations of therapeutic inhibitor peptides that yielded 2% to 8% of normal MK2 activity. Error is reported as the standard deviation between 2 samples, and “c” is rat AMPK whereas all other kinases used are human kinases.

CDK1/cyclinB = target: T2, CDK1/cyclinB (Homo sapiens, UniProt P06493); test: Millipore radiometric kinase activity assay, CDK1/cyclinB (h)
T2 construct: purchased Millipore (assay service)
Procedure: as §1
as §2, with “μL, CDK1/cyclinB” for “μL, Aurora-A”, “EDTA, 0.1 mg/mL histone H1,” for “EDTA, 200 μM LRRASLG [SEQ ID NO: 50] (Kemptide),”, “in 75” for “in 50”
as §3, §4

CK1δ = target: T3, CK1δ (Homo sapiens, UniProt P48730); test: Millipore radiometric kinase activity assay, CK1δ (h)
T3 construct: purchased Millipore (assay service)
Procedure: as §1
as §2, with “μL, CK1δ” for “μL, Aurora-A”, “μM KRRRALS(p)VASLPGL” for “μM LRRASLG”, “NO: 54],” for “NO: 50] (Kemptide),”, “in 75” for “in 50”
as §3, §4

DYRK2 = target: T4, DYRK2 (Homo sapiens, UniProt Q92630); test: Millipore radiometric kinase activity assay, DYRK2 (h)
T4 construct: purchased Millipore (assay service)
T4 sequence (Q92630 1-601): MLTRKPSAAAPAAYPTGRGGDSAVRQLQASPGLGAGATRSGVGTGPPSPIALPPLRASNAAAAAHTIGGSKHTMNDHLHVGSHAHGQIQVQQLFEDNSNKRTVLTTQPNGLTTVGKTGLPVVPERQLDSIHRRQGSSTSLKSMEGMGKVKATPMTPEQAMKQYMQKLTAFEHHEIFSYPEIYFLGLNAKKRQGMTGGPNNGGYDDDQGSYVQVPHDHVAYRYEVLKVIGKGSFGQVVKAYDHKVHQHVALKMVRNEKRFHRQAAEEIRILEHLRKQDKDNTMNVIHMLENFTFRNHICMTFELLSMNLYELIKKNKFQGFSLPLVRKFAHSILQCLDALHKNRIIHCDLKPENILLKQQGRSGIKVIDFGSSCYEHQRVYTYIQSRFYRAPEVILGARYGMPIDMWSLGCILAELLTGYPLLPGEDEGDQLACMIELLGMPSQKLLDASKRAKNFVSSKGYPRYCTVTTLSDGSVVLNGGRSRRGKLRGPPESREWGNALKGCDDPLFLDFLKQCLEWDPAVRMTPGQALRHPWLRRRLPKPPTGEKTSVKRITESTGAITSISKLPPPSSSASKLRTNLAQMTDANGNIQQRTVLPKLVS
Procedure: as §1
as §2, with “25 μL, DYRK2 (h) (5-10” for “25 μL, Aurora-A (h) (5-10”, “mM EDTA, 2 mg/mL casein, 10 mM” for “mM EDTA, 200 μM LRRASLG [SEQ ID NO: 50] (Kemptide), 10 mM”, “of 5 μL, of a” for “of 5 μL of a”, “minutes in 75 mM phosphoric” for “minutes in 50 mM phosphoric”
as §3, §4

MEK1 = target: T5, MEK1 (Homo sapiens, UniProt Q02750); test: Millipore radiometric kinase activity assay, MEK1 (h)
T5 construct: purchased Millipore (radiometric assay service)
Procedure: as §1
The reaction is initiated by the addition of the MgATP. After incubation for 40 minutes at room temperature, 5 μL of this incubation mix is used to initiate a MAPK2 (m) assay.
as §3, §4

T3 sequence (P48730 whole entry): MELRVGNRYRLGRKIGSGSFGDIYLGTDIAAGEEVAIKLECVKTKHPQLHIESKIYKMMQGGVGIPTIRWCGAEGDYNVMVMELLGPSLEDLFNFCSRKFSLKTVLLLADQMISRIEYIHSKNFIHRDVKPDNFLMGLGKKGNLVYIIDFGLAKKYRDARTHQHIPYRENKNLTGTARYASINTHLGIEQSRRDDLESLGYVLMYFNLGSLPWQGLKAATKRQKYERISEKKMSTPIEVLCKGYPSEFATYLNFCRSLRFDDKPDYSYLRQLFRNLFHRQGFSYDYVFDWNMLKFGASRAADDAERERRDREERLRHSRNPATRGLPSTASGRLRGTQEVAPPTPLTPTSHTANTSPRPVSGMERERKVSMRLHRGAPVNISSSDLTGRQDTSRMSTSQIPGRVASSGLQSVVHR
T2 sequence (P06493 whole entry): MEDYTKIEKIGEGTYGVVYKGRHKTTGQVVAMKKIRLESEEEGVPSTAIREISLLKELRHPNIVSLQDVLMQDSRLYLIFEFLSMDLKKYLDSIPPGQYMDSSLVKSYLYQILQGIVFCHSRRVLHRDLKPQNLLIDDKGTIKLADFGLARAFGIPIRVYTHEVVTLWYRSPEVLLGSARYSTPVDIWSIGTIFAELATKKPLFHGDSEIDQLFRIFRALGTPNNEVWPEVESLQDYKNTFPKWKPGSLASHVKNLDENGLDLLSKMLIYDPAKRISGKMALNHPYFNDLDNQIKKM
T2 sequence (P14635 whole entry partner): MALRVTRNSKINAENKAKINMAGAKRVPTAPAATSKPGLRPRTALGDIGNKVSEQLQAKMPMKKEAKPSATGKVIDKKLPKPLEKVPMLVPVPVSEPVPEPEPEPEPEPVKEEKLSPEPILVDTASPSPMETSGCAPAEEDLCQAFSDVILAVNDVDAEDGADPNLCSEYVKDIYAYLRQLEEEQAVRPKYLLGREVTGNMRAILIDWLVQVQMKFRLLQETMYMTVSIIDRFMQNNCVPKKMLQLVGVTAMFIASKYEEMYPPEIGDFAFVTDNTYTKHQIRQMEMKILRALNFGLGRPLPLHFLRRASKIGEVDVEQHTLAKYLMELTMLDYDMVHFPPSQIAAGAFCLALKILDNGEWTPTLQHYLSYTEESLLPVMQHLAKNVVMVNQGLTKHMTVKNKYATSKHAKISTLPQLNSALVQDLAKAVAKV

Sequence: KAFAKLAARLYRKALARQLGVAA
- Aurora-A Kinase Activity (%) (+SD %) (Aurora-A; peptide 100 μM): 60 (1) %
- CDK1/cyclin B Kinase Activity (%) (+SD %) (CDK1/cyclinB; peptide 100 μM): 55 (3) %
- CK1δ Kinase Activity (%) (+SD %) (CK1δ; peptide 100 μM): 97 (2) %
- DYRK2 Kinase Activity (%) (+SD %) (DYRK2; peptide 100 μM): −10 (0) %
- MEK1 Kinase Activity (%) (+SD %) (MEK1; peptide 100 μM): 66 (0) %

Sequence: WLRRIKAWLRRIKALNRQLGVAA
- Aurora-A Kinase Activity (%) (+SD %) (Aurora-A; peptide 30 μM): 46 (1) %
- Aurora-A Kinase Activity (%) (+SD %) (Aurora-A; peptide 100 μM): 65 (5) %
- CDK1/cyclin B Kinase Activity (%) (+SD %) (CDK1/cyclinB; peptide 30 μM): 17 (0) %
- CDK1/cyclin B Kinase Activity (%) (+SD %) (CDK1/cyclinB; peptide 100 μM): 36 (2) %
- CK1δ Kinase Activity (%) (+SD %) (CK1δ; peptide 30 μM): 52 (1) %
- CK1δ Kinase Activity (%) (+SD %) (CK1δ; peptide 100 μM): 99 (3) %
- DYRK2 Kinase Activity (%) (+SD %) (DYRK2; peptide 30 μM): 93 (8) %
- DYRK2 Kinase Activity (%) (+SD %) (DYRK2; peptide 100 μM): −11 (1) %
- MEK1 Kinase Activity (%) (+SD %) (MEK1; peptide 30 μM): 14 (2) %
- MEK1 Kinase Activity (%) (+SD %) (MEK1; peptide 100 μM): 68 (2) %
